Measured values taken from patent US20230296621A1 (CHAN ZUCKERBERG BIOHUB, published 2023).

Target: SARS-CoV-2 Spike receptor binding domain (SpikeRBD, aa 328-533) (SARS-CoV-2, UniProt P0DTC2 328-533)
Assay: BLI on immobilised biotinylated Spike-RBD

B1: C105 IgG (antibody, V domains shown)
VH: QVQLVESGGGLIQPGGSLRLSCAASGFTVSSNYMSWVRQAPGKGLEWVSVIYSGGSTYYADSVKGRFTISRDNSKNTLYLQMNSLRAEDTAVYYCARGEGWELPYDYWGQGTLVTVSS
VL: QSALTQPPSASGSPGQSVTISCTGTSSDVGGYKYVSWYQQHPGKAPKLMIYEVSKRPSGVPDRFSGSKSGNTASLTVSGLQAEDEADYYCSSYEGSNNFVVFGGGTKLTVLG
- binding result: binds

B2: C004 IgG (antibody, V domains shown)
VH: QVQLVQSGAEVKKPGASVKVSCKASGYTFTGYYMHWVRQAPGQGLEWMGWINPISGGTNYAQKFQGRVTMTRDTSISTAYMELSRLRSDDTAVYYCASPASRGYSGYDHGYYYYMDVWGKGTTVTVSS
VL: AIRMTQSPSSLSASVGDRVTITCQASQDISNYLNWYQQKPGKAPKLLIYDASNLETGVPSRFSGSGSGTDFTFTISSLQPEDIATYYCQQYDNLPITFGQGTRLEIKR
notes: also called recombinant anti-S-RBD antibody C004
- binding result: binds
